The chains are these.
B1: Flag and GFP-fused PKN3 WT (mouse) [mouse] / p130Cas, endogenous in MDA-MB-231 cells [human (endogenous in MDA-MB-231)] (parent complex)
chain 1: MEHRKPGTGQRAPKDEKEMVRRAIQKELKIKEGMENMRRVATDRRHLGHVQQLLRASNRRLEQLHGELRELHAQVLLPASAEPVTSEPQPRAEQSRARLSEALHRQLQVELKVKQGAENMIHTCASGTPKERKLLAAAQQMLKDSQLKVALLRMKISSLESSGSPEPGPDLLAEELQHRLRVEAAVAAGAKNVVKLLGGQRMQDRKALAEAQAQLQESSQKLDLLRLALELLLERLPPTHSLRSRVTQELWMAMLGNPQPLGTLVKPIALTGTLQVRLLGCKDLLVAVPGRSPMAVLAGSPSESWLRTRSRQQRGGGELASEVLAVLKVDNRVVGQTGWGLVAEKSWDQSFIISLDRARELEIGVHWRDWRQLCGVAFLKLEDFLDNACHQLSLSLVPQGRLFAQVTFCEPVIERRPRLQRQRCIFSKRRGRDFMRASQMNLSMAAWGRLVMSLLPPCSSPNTASPPKGRPSTAVCGTPSAASPSNFLPMKTLSKEDTKPPPKPPRLYLQEPAPGTPCTKRPHMDPRPAVVPALAALSTRKPPRLQDFRCLAVLGRGHFGKVLLVQYKGTGKYYAIKALKKQEVLGRDEIDSLYCEKRILETVGRTGHPFLLSLLACLQTSSHACFVTEFLPGGDLMAQIHEDVFPEPQACFYLACVVLGLQFLHEKRIIYRDLKLDNLLLDAQGFLKIADFGLCKEGIGFGDRTSTFCGTPEFLAPEVLTQEAYTRAVDWWGLGVLLYEMLVGECPFPGDTEEEVFECIVSADVPCPHFLSVQGLELIQKLLQKSPEKRLGAGERDAEEIKVQPFFRTTNWQALLARTVQPPFVPTLCGPADLRYFEGEFTSLPPTLTPPVSQSSLTARQQAAFRDFDFVSEQFLES
chain 2: MNHLNVLAKALYDNVAESPDELSFRKGDIMTVLEQDTQGLDGWWLCSLHGRQGIVPGNRLKILVGMYDKKPAGPGPGPPATPAQPQPGLHAPAPPASQYTPMLPNTYQPQPDSVYLVPTPSKAQQGLYQVPGPSPQFQSPPAKQTSTFSKQTPHHPFPSPATDLYQVPPGPGGPAQDIYQVPPSAGMGHDIYQVPPSMDTRSWEGTKPPAKVVVPTRVGQGYVYEAAQPEQDEYDIPRHLLAPGPQDIYDVPPVRGLLPSQYGQEVYDTPPMAVKGPNGRDPLLEVYDVPPSVEKGLPPSNHHAVYDVPPSVSKDVPDGPLLREETYDVPPAFAKAKPFDPARTPLVLAAPPPDSPPAEDVYDVPPPAPDLYDVPPGLRRPGPGTLYDVPRERVLPPEVADGGVVDSGVYAVPPPAEREAPAEGKRLSASSTGSTRSSQSASSLEVAGPGREPLELEVAVEALARLQQGVSATVAHLLDLAGSAGATGSWRSPSEPQEPLVQDLQAAVAAVQSAVHELLEFARSAVGNAAHTSDRALHAKLSRQLQKMEDVHQTLVAHGQALDAGRGGSGATLEDLDRLVACSRAVPEDAKQLASFLHGNASLLFRRTKATAPGPEGGGTLHPNPTDKTSSIQSRPLPSPPKFTSQDSPDGQYENSEGGWMEDYDYVHLQGKEEFEKTQKELLEKGSITRQGKSQLELQQLKQFERLEQEVSRPIDHDLANWTPAQPLAPGRTGGLGPSDRQLLLFYLEQCEANLTTLTNAVDAFFTAVATNQPPKIFVAHSKFVILSAHKLVFIGDTLSRQAKAADVRSQVTHYSNLLCDLLRGIVATTKAAALQYPSPSAAQDMVERVKELGHSTQQFRRVLGQLAAA

In this assay the parent is B1. The assay is described as follows: co-immunoprecipitation (IP anti-Flag sepharose, IB anti-p130Cas); MDA-MB-231 cells, transient transfection; parent: 1.
For chain 1 P501A, chain 1 K503S, chain 1 P504A, the ratio to parent turned out to be 0.2. Next, chain 1 K577E: 0.8.

The values are drawn from article PMC6360386 (2018).
